Measurements from the nanobody polyreactivity screen of Harvey et al. (2022).

test: yeast display, Sf9 membrane polyspecificity reagent, FACS + sequencing; frameworks hold sequencing errors
Outline: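 A nanobody's polyreactivity label depends on the gate it was sorted from. Yeast display cells were stained with 10% biotinylated, detergent-solubilized Sf9 membrane reagent for 1 hour at 4 °C, enriched on streptavidin microbeads and sorted by FACS. The low and high (top ~1%) gates were set on anti-HA fluorescence for expression and streptavidin fluorescence for reagent binding.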

Sequence	polyreactivity (PSR sort gate)
QVQLVESGGGLVQAGGSLRLSCAASGSTFAYYTMGWYRQAPGKERELVAAISKSGGSTTYADSVKGRFTISRDNAKNTVYLQMNSLKPEETAVYYCAAARKYYGYNYWGQGTQVTVSS	high polyreactivity
QVQLVESGGRLDQAGGSLRLSCAASASTFKEYPMGWYRQAPGKERELVAAISKSGDSTYYADSVKGRFTISRDNAKNTVYLQMNSLKPEDTAVYYCAADTFSFRWSDYWGLGTQVTVSS	low polyreactivity
QVQLVESGGGLVQAGGSLRLSCAASGLTFVWYAMGWYRQAPGKERELVAAIRGGGSTYYADSVKGRFTISRDNAKNTVYLQMNSLKPEDTAVYYCAAPYARCLFYLLHYPRFSYDYWGQGTQVTVSS	high polyreactivity
QVQLVESGGGLVQAGGSLRLSCAASGRTFTGNVMGWYIKAPGKERELVAAISRSGTSTYYADSVKGRFTISRDNAKNTVYLQMNSRKPEDTAVYYCAARRTAGYRSAEYDYWGQGTQVTVSS	high polyreactivity
QVQLVESGGGLLQAGGSLRLSCAASGSTFWFYAMGWYRQAPGKERELVDVISNSGSTYYADSEKGRFTISRDNAKNTVYLQMNSLKPEDTAVYNCAADGFYYPNWGRFSYYYWGQGTLVTVSS	low polyreactivity
QVQLVESGVRLVQAGGSHRLSCAANGFIFRRYAMGWYIQAPGKERELVAAITRSGGTTYYADSVKGRFTISRDNAKNTVYFQLNSLKPEDTAVYYCDARRPYTYDSGDILEMDHWGQGTQVTVSS	high polyreactivity
QVQLVESGGGLVQAGGSLRLSCAASGSTFTWNAMGWYRQAPGKERELVAAISGDGGSTYYADSVKGRFTISRDNAKNTVYLQMNSLKPEDTAVYYCAASSAHIYSYRYNYWGQGTQVTVSS	low polyreactivity
QVQHVESGGGLVQAGGSLRLSCAASGSTFQYPYTMGWYRQAPRKARELVAVISRTGGSTFYADSVKGRFTISRDNAKNTVYLQMNSLKPEDTAVYYCNARPRYKYPSYDYWGQGTQLTVSS	high polyreactivity
QVQLVESGGGLVQAGGSLRLSCAASGSTLPVNAMGWYRQAPGKERELVAAINRDGSTNYADSVKRPFTFSRDNAKNTVYLQMNSLKQEDTAVYYCAADGFGYPGKRYDYWGQGTQVTVSS	low polyreactivity
QVQLVESGGGLVQAGGSLRLSCAASGRTFQIYAMGWYRQAPGKERELVAAISRRGGSTYYADSVKGRFTISRDNAKNTVYLQMNSLKPEDTAVYYCNVVHWRGEYSYAGYDYWGQGTQVTVSS	high polyreactivity
QVQLVESGGGLVQAGGSLRLSCSASGIIFGWYAMGWYRKAPGKEREFVATISWSGASTYYADSVKGRFTISRDNAKNTVYLQLNSLKPEDTAVYYCAAVGRRQAFGRRDYWGQGKQVTVSS	high polyreactivity
QVQLVESAGGIVQAGGSLRLSCAASGITFPGNAMGWYRPAPGKERELVAAIDCYGGSTYYADTVKGRFTISRDNAKNTVYLQLNSLKPEDTAVYYCATDEYFSYYGYFLDAYWGQGTQVTLSS	low polyreactivity
QVQLVESRGGLVQAGGSLRLSCAASGRIIPSYMGWYRQAPGKQRELVARISNTGSTYYADSVKGRFTISRDNAKNTVYLQMNRLKPEDTAVYYCAAVYIFRVFSHPPYDYWGQGTQVTVST	low polyreactivity
QVQLVESGGGLVQAGGSLRLSCAASGFTFDTYAMGWSRQAPGKERELVAAISSSGGSTYYADSVKGRFTISRDNAKNTVYLQMNSLKPEDTAVYYCNAYYRYSRGYDYWGQGTQVTVSS	high polyreactivity
QVQLVESGGGLVQAGGSLRLSCAASGFTFARYAMGWYRQAPGKERELVAAISISGGRTYYADSVKGRFSISRDNAKNTVYLQMNSLKPEDTAVYYCNKGHVPSYDYNYWGQGTQVTVSW	high polyreactivity
QVQLVESGGGLVQAGGSLRLSCAASGSTFSDYAMGWYRPEPGKERELDATITSTGDTNYADSVKGRFTMSRDNAKTTVYLQMNSLKPEDTAVYYCAAQHKKYGKRGRWNNFGYWGQGTQVTVSS	low polyreactivity
QVQLVESGGGLVQAGGSLRLSCAASGFTLGDNAMGWSRQAPGKERELVAAISGGGSSTYYADSVKGRFTISRDNAKNTVYLQMNSLKPEDTAVYYCAADYYFSTYYSRYYFWGQGTQVTVSS	low polyreactivity
QVQLVESGGGLVQAGGSLRLSCAASGRTLSRNAMGWYRQAPGKERELVAAINYSGGITYYADSVKGRFTISRDNAKNTVYLQMNSLKPEDTAVYYCAATVKYWGQGTQVTVSS	high polyreactivity
QVQLVESGGGLVQAGGSLRLSCAASGFIFYYYDMGWYRQAPGKERELVAAITYDGGSTYYADSVKGRFTSSRDNAKNTVYLQMNSLKPEDTAVYYCNAVYGQYYDYWGQGTQVTVSS	low polyreactivity
QVQLVESGGGLVQAGGSLRLSCAASGRTFYYYAMGWYRQAPGKERELVAVISWDDGSTYYADSVKGRFTISRDNAKNTVYLQMNSLKPEVTAVYYCAAYDYLDYADDYWGQGTQVTVSS	low polyreactivity
QVQLVESGGGLVQAGGSLRLSCAASGSIFRWYAMGWSRQAPGKEREFVAAITSSGGSTYYADSVKGRFTISRDNAKNTVYLQMNSLKPEDTAVYYCNRRYQPYSYDYWGQGTQVTVSS	high polyreactivity
QVQLVESGGGLVQAGGSLGLSCAASGRTFGFYAMGWYRQATGKQRELVAAITSTGGSTYYADSVKGRFTISRDNAKNTVYLQMNSLKPEDNAVYYCAADSGTKRYYYWGQGTPVTVSS	high polyreactivity

Sequence	polyreactivity (PSR sort gate)
QVQLVESGGGLVQAGGSLRLSCAASGRIFPTYAMVWYRQAPGKDRELVASISWSGGRTYYADSVKGRFSISRDNAKITVFLQMNSLKPEDTAVYYCAKRTYQGEGTVKRRYDYWGQVTQVTVSS	low polyreactivity
QVQLVESGGGLVQAGGSLRLSCAASGSIFRAYAMGWYRQAPGKERELVAAISIGGRTYYADSVKGRFTISRDNAKNTVYLQMNSLKPEDTAVYYCAAVRSYVKGGMYYWGQGTQVTVSS	low polyreactivity
QVQLVESGGGLVQAGGSLRLICAASGGIFPTYDMVWYRQAPGKERELVAAIDRNGTSTTYSDSVKGRFTISRDNAKNTVYLQMNSLKPEDTEVYYCAAGYNDQTSAYDYWGHGTQVTVSS	low polyreactivity
QVPLVESGGGLVQAGGSLRLSCAASGFTFFSHAMGWYSQAPGKDRELVAAITTNGGSTYYADSVKGRFTISRDNAKNTVYVQITSLKPEDTAVYYCAADYSLPWSWLYEYWGQGTQVTVSS	low polyreactivity
QVQLEESGGGLVQAGGSLRLSCAASGRTFGVYAMGWYRQAPGKERELVAGIRWRGGSTYYADSVKGRFTISRDNAKNTVYLQMNSLKPEDTAVYYCAADVYLVKYDYWGQGTQVTVSS	low polyreactivity
QVKLVESGGGLVQAGGSLRLSCAASGGNFGNYAMGWYRQAPWKERELVATIRYRGGSTYYADSVKGRFTISRDNAKITVYLQMNSLIPEDTAVFYCAARRSHPQDPRFRYGYWGQATQVTVSS	high polyreactivity
QVQLVESGGGLVQAGGSLRLSCAASGFIFVKYAMGWYIQAPGKERELVAAITTSGTGTFYADSVKGRFTISRDNAKYTVYLQMNRLKPEDTAVYYCNALGHPGDDWGQGTQVTVSS	low polyreactivity
QVQLEESGGGLVQAGGRLRLSCSASGFICGSNAMGWYRQAPGKERELVAAISARGGSTYYADSVKGRFTISRDNAKNPVYLQMNSLKPEDTAVYYCNTGTSGRFLSFGNFDYWGQGTQVTVSS	high polyreactivity
QVQLVESGGGLVQAGGSLRLSCAASGLIFDSYDMGGSRQAPGKERELVAAIRRNGGSTYYADSLKGRFTISRDNAKNTVYLQMNSLIPEDTEVYYCAVDNSGYSGVYWVKMDYWGQGTQVTVSS	low polyreactivity
QVQLVESGGGLGQAGGSLRLSCAASGRTFTYNAMGWYRQAPGKERELVAAISYSGGRTYYADSVKGRFTISRDNAKNTVYLQMNSLKPEDTAVYYCARAYLGYYGRTYEYWGQGTQVTVSS	high polyreactivity
QVQLVESGGGLVQAGGSLRLSCAASGSIFYYNAMGWYRQAPGKERELVAAISQRGTRTYYADSVKGRFTISRDNAKNTVYLQMNSLKPEVTAVYYCAAESSSYYGYYIYYYWGQGTQVTVSS	high polyreactivity
QVQLVESGGGLVQAGGSLRLSCAASGSIFAHYTMGWYRQAPGKERELVASISYRATRTHYADSVKGRFTISRDNAKNTVYLQMNSLKPEDTAVYYCNKGGYPGLQWGNYPPYRSKDDYWGQGTQVTVSS	high polyreactivity
QVQLVESGGGLVQAGGSLRLSCAASGSIFYYNAMGWYRQAPGTERELVAAITSSGGSTYYADSVKGRFTISRDNAKNTVYLQMNSLKPEDTAVYYCNADQDAYYLVYIATYDYWGQGTQVTVSS	low polyreactivity
QVQLVESGGGLVQAGGSLRLSCAASGRIFRSYAMGWYRQAPGKERELVAAISSGGSTNYADSVKGRFTISRDNAKNTVYLQMNSLKPEDTAVYYCAASYLYEWSRFVYDGLYYWGQGTQVTVSS	low polyreactivity
QVQLVESGGGLVQAGGSLRLSCAASGITFSDYAMGWYRQAPGKEWELVAAISARGGSTYYADSVKGRFTISRDNAKNTVYLQMNSLKPEDTAVYYCAADKRTPYYSRAGMDYWGQGTQVTVSS	low polyreactivity
QVQLVESGGGLVQAGGSLRLSCAASGITFGWYAMGWYRQAPGKERELVAAITWDGGSTYYADSVKGRFTFSRDNAKNTVYLQMNSLKPEDTAVYYCAAEYIYYYYLVARDYWGQGTQVTVSS	high polyreactivity
QVQLVESGGGLVQAGGSLRLSCAASGSIFVGKAMGWYRQAPGKERELVAAISSSGGRTYYADSVKGRFTISRDNAKNTVYLQMNSLKPEDTAVYYCAADVSYKVKSWSVYRYEYWGQGTQVTVSS	high polyreactivity
QVQLVESGGGLVQAGGSLRLSCAASGITFRHNTMGWYRQAPGKERELVSTNYADSVKGRFTISRDNAKNTVYLQMNSLKPEDTAVYYCNADGTFEYDYWGQGTQVTVSS	low polyreactivity
QVQLVASAGGLVQAGRSLRLSCAASGRIFSWYTMGWYRQAPGKERELVADITYSGGSTYYADSVKGRFTISRDNAKNTVYLQMNSLKPEDTAVVYCIADPRWYHFEYGYWGQGTQVTVSS	high polyreactivity
QVQLVESGGGLVQAGGSLRLSCAASGFIFYKYAMGWYRQAPGKERELVAAITARGGSTYYADSVKGRFTISRDNAKNTVYLQMNSLKPEDTAVYYCAADTYFSGAGGQAYQYDYWGQGTQVTVSS	high polyreactivity
QVQLVESGGGLVQAGGSLRLSCAASGSTFYWYAMGGYRQAPGKERELVAAISGSGGRTYYADSVKGRFTISRDNAKNTVYLQMYSLKPEDTAGYYCAADTKFYNYYYWGQGTQVTVSS	high polyreactivity
